Measurements taken from the supplement of paper PMC10567573.

B1: RIPK4 (parent)
chain: RERMELLEEAKKMEMAKFRYILPV
B2: HDAC6 (parent)
chain: QEGLLDRCVSFQARFAEKEELMLV

Variants of: B1
Test: protein stability index of a GFP-peptide fusion (GPS, HEK-293T) (PSI 1-6); higher = more stable
Conditions: c terminus: a fixed tail appended
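Also: lentivirally expressed fusions sorted by FACS into six bins by GFP to DsRed ratio, PSI derived from sequencing read proportions per bin multiplied by bin number.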

Protein stability index, by site and new letter:
R1: W 2.5; Y 2.9; M 3.98; C 2.88; S 3.53; V 3.83; E 3.99; H 4.5; F 3.47; G 3.79; L 4.16; A 3.83; N 4.13; Q 3.9; I 3.29; P 3.85; K 4.16; D 4.22; T 3.13
E2: N 3.59; Q 2.31; S 2.77; I 1.93; R 2.67; L 2.57; A 2.42; H 2.75; P 3.75; V 2.81; M 2.37; G 2.57; D 3.21; F 2.27; C 1.34

Variants of: B2
Test: as above
Conditions: c terminus: a fixed tail appended

Protein stability index: each site, then its substitutions
L21: S 4.16; Q 2.88; H 2.45; G 3.76; M 2.14; T 2.73; E 3.16; I 1.59; P 3.29; R 3.06; N 3.78; W 2.03; C 2.18; F 1.98; D 4.3; Y 2.17; A 4.12; V 2.14; K 3.17
K18: I 2.6; N 1.77; D 1.79; H 1.44; Y 1.78; Q 2.17; T 2.66; M 2.04; L 1.49; E 2.38; C 2.17; S 1.75; W 2.1; V 1.96; P 2.07; R 1.45; A 1.98; G 1.63; F 2.51
V24: L 2.21; Y 2.27; I 2.17; D 4.32; K 3.74; E 4.18; A 3.83; M 2.05; P 4.13; W 2.21; T 3.82; N 3.42; R 3.31; F 1.85; G 3.62; Q 3.76; S 3.59; C 2.63; H 2.82
L23: P 3.45; E 3.49; N 3.82; S 3.25; F 1.96; C 2.59; W 1.89; M 1.83; I 1.85; R 3.35; Y 2.14; G 3.93; H 2.57; V 1.93; K 3.55; A 3.4; D 4.37; Q 2.32; T 2.98
M22: H 2.59; C 3.01; R 3.14; W 1.95; V 1.92; T 3.2; Y 2.03; S 3.43; F 1.88; Q 2.81; A 2.93; L 2.03; N 3.84; E 4.27; I 1.92; K 3.31; P 3.99; D 4.03; G 3.27
E19: A 1.76; T 2.87; Y 1.53; N 1.6; C 1.63; S 2.14; H 2.14; W 2.08; D 1.76; Q 1.67; R 1.84; P 2.18; V 1.49; K 1.9; L 1.49; M 1.58; I 2; G 2.6; F 1.98
E17: Y 1.67
E20: G 1.74; I 1.18; H 2.52; R 1.69; V 1.72; L 1.62; K 1.96; A 2.37; T 2.14; F 2.98; Q 1.86; Y 1.67; W 2.02; S 2.24; N 1.84; D 2.32; M 1.37; P 2.01
